# Patent US20060264369, “Aptamers to von Willebrand Factor and their use as thrombotic disease therapeutics” (published 2006)
# Changes are numbered by the printed parent chain.
# B1: ARC1535 (mixed)
# mixed: CCGGCCGTGCGGTGCCUCCGUCACUUUGUGCAGUGCCGG
# modifications: 2'-OMe/deoxy composite, single PS, 3'-idT
# B2: ARC1759 (ssDNA)
# DNA: GGCGTGCAGTGCCTTCGGCCGTGCGGTGCCTCCGTCACGCC
# modifications: single PS between G21 and T22, 3'-idT
# B3: ARC1340 (mixed)
# mixed: B2 DNA with T31U, T35U
# modifications: 2'-OMe at 23, 28, 29, 31, 34-36, 3'-idT
# B4: ARC1239 (ssDNA)
# DNA: B2 DNA
# modifications: 2'-OMe at 12,13,19; 3'-idT
# B5: ARC1225 (ssDNA)
# DNA: B2 DNA
# modifications: 2'-OMe C32, 3'-idT
# B6: ARC1208 (ssDNA)
# DNA: B2 DNA with T15U
# modifications: 2'-OMe at 15 (mU); 3'-idT
# B7: ARC1199 (ssDNA)
# DNA: B2 DNA
# modifications: 2'-OMe G6, 3'-idT
# B8: ARC1201 (ssDNA)
# DNA: B2 DNA
# modifications: 2'-OMe A8, 3'-idT
# B9: ARC1339 (mixed)
# mixed: B2 DNA with T10U, T35U
# modifications: 2'-OMe at 9, 10, 21, 23, 34-36, 3'-idT
# B10: ARC1217 (ssDNA)
# DNA: B2 DNA
# modifications: 2'-OMe C24, 3'-idT
# B11: ARC1172 (ssDNA)
# DNA: B2 DNA
# modifications: 3'-idT
# B12: ARC1229 (ssDNA)
# DNA: B2 DNA
# modifications: 2'-OMe at 36; 3'-idT
# B13: ARC1218 (ssDNA)
# DNA: B2 DNA
# modifications: 2'-OMe G25, 3'-idT
# B14: ARC1224 (ssDNA)
# DNA: B2 DNA with T31U
# modifications: 2'-OMe U31, 3'-idT
# B15: ARC1198 (ssDNA)
# DNA: B2 DNA with T5U
# modifications: 2'-OMe U5, 3'-idT
# B16: ARC1202 (ssDNA)
# DNA: B2 DNA
# modifications: 2'-OMe G9, 3'-idT
# B17: ARC1235 (mixed)
# DNA: B2 DNA
# modifications: 2'-OMe G1 G2 G4 G6 A37 G39, 3'-idT
# B18: ARC1115 (ssDNA)
# DNA: B2 DNA
# B19: ARC1204 (ssDNA)
# DNA: B2 DNA
# modifications: 2'-OMe at 11; 3'-idT
# B20: ARC1237 (mixed)
# mixed: B2 DNA with T5U
# modifications: 2'-OMe at 1-6 and 36-41, 3'-idT
# B21: ARC845 (ssDNA)
# DNA: ATGAGAGTGCTGGTGGATTGCTCAGGTCTGCTGGCTGCTTACTCTCAT
# B22: ARC1346 (mixed)
# mixed: GCGUGCAGUGCCUUCGGCCGTGCGGTGCCUCCGUCACGC
# modifications: 2'-OMe/deoxy composite, 3'-idT
# B23: ARC1524 (mixed)
# mixed: B22 mixed
# modifications: 2'-OMe/deoxy composite, single PS between mG20 and dT21, 3'-idT
# B24: ARC1368 (mixed)
# mixed: B22 mixed
# modifications: 2'-OMe/deoxy composite, single PS between mG20 and dT21, 3'-idT
# B25: ARC1526 (mixed)
# mixed: B22 mixed with C15U
# modifications: 2'-OMe/deoxy composite, single PS, 3'-idT
# B26: ARC1361 (mixed)
# mixed: B22 mixed
# modifications: 2'-OMe/deoxy composite, 3'-idT
# B27: ARC1027 (ssDNA)
# DNA: GGCGTGCAGTGCCTATTCTAGGCCGTGCGGTGCCTCCGTCACGCC
# modifications: 3'-idT
# B28: ARC1529 (mixed)
# mixed: CGUGCAGUGCCUUCGGCCGTGCGGTGCCUCCGUCACG
# modifications: 2'-OMe/deoxy composite, single PS, 3'-idT
# B29: ARC1530 (mixed)
# mixed: B28 mixed with C14U
# modifications: 2'-OMe/deoxy composite, single PS, 3'-idT
# B30: ARC1534 (mixed)
# mixed: CGGCCGTGCGGTGCCUCCGUCACUUUGUGCAGUGCCG
# modifications: 2'-OMe/deoxy composite, single PS, 3'-idT
# B31: ARC1342 (mixed)
# mixed: GGCGUGCAGUGCCUUCGGCCGTGCGGTGCCUCCGUCACGCC
# modifications: 2'-OMe/deoxy composite as printed in Table 22, 3'-idT
# B32: ARC1345 (mixed)
# mixed: B31 mixed
# modifications: 2'-OMe/deoxy composite with PS 5' of the deoxy residues as printed in Table 22, 3'-idT
# B33: ARC1344 (mixed)
# mixed: B31 mixed
# modifications: 2'-OMe/deoxy composite with multiple PS as printed in Table 22, 3'-idT
# What was measured:
# [1] = target: T1, von Willebrand factor full length (Homo sapiens, UniProt P04275 SEQ:764-2813); assay: filter; 48.3% bound at 100 nM vWF; conditions: tags: Calbiochem 681300; label: 5'-32P
# Description: (§1) For KD determination, chemically synthesized aptamers were purified using denaturing polyacrylamide gel electrophoresis, 5′end labeled with γ-³²P ATP and were tested for direct binding to full length human vWF (Calbiochem Cat.# 681300, La Jolla, Calif.). An 8 point protein titration was used in the dot blot binding assay (100 nM, 30 nM, 10 nM, 3 nM, 1 nM, 300 pM, 100 pM, 0 pM)) in 1× Dulbecco's PBS containing […] (final volume of 50 uL) for 30 minutes at room temperature. KD values were calculated by fitting the equation y=(max/(1+K/protein))+yint using KaleidaGraph (KaleidaGraph v. 3.51, Synergy Software).
# [2] = target: T1, von Willebrand factor full length; assay: filter; 46% bound at 100 nM vWF; conditions: tags: Calbiochem 681300; label: 5'-32P
# Description: as §1
# [3] = target: T1, von Willebrand factor full length; assay: filter; 43% bound at 100 nM vWF; conditions: tags: Calbiochem 681300; label: 5'-32P
# Description: as §1
# [4] = target: T1, von Willebrand factor full length; assay: filter; 37% bound at 100 nM; conditions: tags: Calbiochem 681300
# Description: as §1
# [5] = target: T1, von Willebrand factor full length; assay: filter; 16% bound at 100 nM vWF; conditions: tags: Calbiochem 681300; label: 5'-32P
# Description: as §1
# [6] = target: T1, von Willebrand factor full length; assay: filter; 45% bound at 100 nM; conditions: tags: Calbiochem 681300
# Description: as §1
# [7] = target: T1, von Willebrand factor full length; assay: filter; 28% bound at 100 nM vWF; conditions: tags: Calbiochem 681300; label: 5'-32P
# Description: as §1
# [8] = target: T1, von Willebrand factor full length; assay: filter; only 6% bound at 100 nM vWF; conditions: tags: Calbiochem 681300; label: 5'-32P
# Description: as §1
# [9] = target: T1, von Willebrand factor full length; assay: filter; 39% bound at 100 nM vWF; conditions: tags: Calbiochem 681300; label: 5'-32P
# Description: as §1
# [10] = target: T1, von Willebrand factor full length; assay: filter; 18% bound at 100 nM vWF; conditions: tags: Calbiochem 681300; label: 5'-32P
# Description: as §1
# [11] = target: T1, von Willebrand factor full length; assay: filter; 37% bound at 100 nM vWF; conditions: tags: Calbiochem 681300; label: 5'-32P
# Description: as §1
# [12] = target: T1, von Willebrand factor full length; assay: filter; only 2% bound at 100 nM vWF; conditions: tags: Calbiochem 681300; label: 5'-32P
# Description: as §1
# [13] = target: T1, von Willebrand factor full length; assay: filter; 47% bound at 100 nM vWF; conditions: tags: Calbiochem 681300; label: 5'-32P
# Description: as §1
# [14] = target: T1, von Willebrand factor full length; assay: filter; 50% bound at 100 nM vWF; conditions: tags: Calbiochem 681300; label: 5'-32P
# Description: as §1
# [15] = target: T1, von Willebrand factor full length; assay: filter; 56% bound at 100 nM vWF; conditions: tags: Calbiochem 681300; label: 5'-32P
# Description: as §1
# [16] = target: T1, von Willebrand factor full length; assay: filter; 23% bound at 100 nM vWF; conditions: tags: Calbiochem 681300; label: 5'-32P
# Description: as §1
# [17] = target: T1, von Willebrand factor full length; assay: filter; 36% bound at 100 nM vWF; conditions: tags: Calbiochem 681300; label: 5'-32P
# Description: as §1
# [18] = target: T1, von Willebrand factor full length; assay: filter; 9% bound at 100 nM vWF; conditions: tags: Calbiochem 681300; label: 5'-32P
# Description: as §1
# [19] = target: T1, von Willebrand factor full length; assay: filter; no binding; conditions: tags: Calbiochem 681300; label: 5'-32P
# [20] = target: T1, von Willebrand factor full length; assay: filter; 51% bound at 100 nM vWF; conditions: tags: Calbiochem 681300; label: 5'-32P
# Description: as §1
# [21] = target: T1, von Willebrand factor full length; assay: filter; 26.5% bound at 100 nM vWF; conditions: tags: Calbiochem 681300; label: 5'-32P
# Description: as §1
# [22] = target: T1, von Willebrand factor full length; assay: filter; 38.2% bound at 100 nM vWF; conditions: tags: Calbiochem 681300; label: 5'-32P
# Description: as §1
# [23] = target: T1, von Willebrand factor full length; assay: filter; 29.0% bound at 100 nM vWF; conditions: tags: Calbiochem 681300; label: 5'-32P
# Description: as §1
# [24] = target: T1, von Willebrand factor full length; assay: filter; 38.5% bound at 100 nM vWF; conditions: tags: Calbiochem 681300; label: 5'-32P
# Description: as §1
# [25] = target: T1, von Willebrand factor full length; assay: filter; DPBS, 0.1 mg/mL BSA, RT; conditions: tags: Calbiochem 681300; label: 5'-32P
# Description: Minimers were tested for direct binding to full length human vWF (SEQ ID NO 7), and rabbit vWF A1 domain (SEQ ID NO 6) using a 9 point protein titration (100 nM, 30 nM, 10 nM, 3 nM, 1 nM, 300 pM, 100 pM, 30 pM, 0 pM) (see FIG. 6) in 1×Dulbecco's PBS containing 0.1 mg/mL BSA (final volume of 50 uL) for 30 minutes at room temperature and then applied to a nitrocellulose and nylon filter sandwich in a dot blot apparatus (Schleicher and Schuell, Keene, N.H.). KD values were calculated by fitting the equation y=(max/(1+K/protein))+yint using KaleidaGraph (KaleidaGraph v. 3.51, Synergy Software).
# [26] = target: T1, von Willebrand factor full length; assay: filter; 22.6% bound at 100 nM vWF; conditions: tags: Calbiochem 681300; label: 5'-32P
# Description: as §1
# [27] = target: T1, von Willebrand factor full length; assay: filter; 19.2% bound at 100 nM vWF; conditions: tags: Calbiochem 681300; label: 5'-32P
# Description: as §1
# [28] = target: T1, von Willebrand factor full length; assay: filter; 25.6% bound at 100 nM vWF; conditions: tags: Calbiochem 681300; label: 5'-32P
# Description: as §1
# [29] = target: T1, von Willebrand factor full length; assay: filter; 33% bound at 100 nM vWF; conditions: tags: Calbiochem 681300; label: 5'-32P
# Description: as §1
# [30] = target: T1, von Willebrand factor full length; assay: filter; 29% bound at 100 nM vWF; conditions: tags: Calbiochem 681300; label: 5'-32P
# Description: as §1
# [31] = target: T1, von Willebrand factor full length; assay: filter; 17% bound at 100 nM vWF; conditions: tags: Calbiochem 681300; label: 5'-32P
# Description: as §1
binder,measurement,setting,value
B1,Kd,[1],27.1 nM
B2,Kd,[2],0.7 nM
B3,Kd,[3],7.4 nM
B4,Kd,[4],5 nM
B5,Kd,[5],11 nM
B6,Kd,[6],2 nM
B7,Kd,[7],19 nM
B8,Kd,[8],0.9 nM
B9,Kd,[9],2.4 nM
B10,Kd,[10],14 nM
B11,Kd,[11],2 nM
B12,Kd,[4],5 nM
B13,Kd,[12],32 nM
B14,Kd,[13],0.5 nM
B15,Kd,[14],0.9 nM
B16,Kd,[15],0.4 nM
B17,Kd,[16],13 nM
B18,Kd,[17],2 nM
B19,Kd,[6],2 nM
B20,Kd,[18],41 nM
B21,binding result,[19],no binding
B22,Kd,[20],11 nM
B23,Kd,[21],5.7 nM
B24,Kd,[22],1.8 nM
B25,Kd,[23],47 nM
B26,Kd,[24],7.9 nM
B27,Kd,[25],0.8 nM
B28,Kd,[26],12.3 nM
B29,Kd,[27],15 nM
B30,Kd,[28],62.8 nM
B31,Kd,[29],15.6 nM
B32,Kd,[30],12.1 nM
B33,Kd,[31],4.8 nM
